From the supplement of paper PMC5998384 come the findings set out here.

Data set [1] concerns HeLa Kyoto. As to the kind of experiment: solubility in G1/S (NP-40 vs SDS abundance) (log2 ratio); higher = more soluble. The settings on record: cell cycle stage: G1/S.
Data set [2] deals with HeLa Kyoto. As to the kind of experiment: melting temperature (median over replicates), in situ; higher = more thermally stable.
Data set [3] deals with HeLa Kyoto. As to the kind of experiment: solubility change mitosis vs G1/S (difference of NP-40 vs SDS log2 ratios) (log2 ratio difference); higher = more soluble in mitosis.
Data set [4] relates to HeLa Kyoto. As to the kind of experiment: thermal stability score vs G1/S (z-score of summed log2 fold changes over temperatures); higher = more thermally stable than in G1/S.
Setting [5] is: cell cycle stage: early G1 (4.5 h after nocodazole release).
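Wherever melting temperature (median over replicates), in situ is given: HeLa Kyoto cells synchronized by double thymidine or nocodazole block, proteins quantified by TMT10plex mass spectrometry, three independent biological replicates.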
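Wherever solubility change mitosis vs G1/S (difference of NP-40 vs SDS log2 ratios) is given: synchronized HeLa Kyoto cells (double thymidine block for G1/S, nocodazole release for mitosis), protein amounts in NP-40 versus SDS lysates quantified by mass spectrometry, three biological replicates.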
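Wherever solubility in G1/S (NP-40 vs SDS abundance) is given: HeLa Kyoto cells arrested at G1/S by double thymidine block, proteins quantified by TMT10plex mass spectrometry in mild NP-40 versus SDS extracts, three biological replicates.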
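Wherever thermal stability score vs G1/S (z-score of summed log2 fold changes over temperatures) is given: synchronized HeLa Kyoto cells, proteins quantified by TMT10plex mass spectrometry, three biological replicates, mitosis taken 0.5 h after nocodazole release, G1/S directly after double thymidine block.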

For the sequence “MEDGKPVWAPHPTDGFQMGNIVDIGPDSLTIEPLNQKGKTFLALINQVFPAEEDSKKDVEDNCSLMYLNEATLLHNIKVRYSKDRIYTYVANILIAVNPYFDIPKIYSSEAIKSYQGKSLGTRPPHVFAIADKAFRDMKVLKMSQSIIVSGESGAGKTENTKFVLRYLTESYGTGQDIDDRIVEANPLLEAFGNAKTVRNNNSSRFGKFVEIHFNEKSSVVGGFVSHYLLEKSRICVQGKEERNYHIFYRLCAGASEDIREKLHLSSPDNFRYLNRGCTRYFANKETDKQILQNRKSPEYLKAGSMKDPLLDDHGDFIRMCTAMKKIGLDDEEKLDLFRVVAGVLHLGNIDFEEAGSTSGGCNLKNKSAQSLEYCAELLGLDQDDLRVSLTTRVMLTTAGGTKGTVIKVPLKVEQANNARDALAKTVYSHLFDHVVNRVNQCFPFETSSYFIGVLDIAGFEYFEHNSFEQFCINYCNEKLQQFFNERILKEEQELYQKEGLGVNEVHYVDNQDCIDLIEAKLVGILDILDEENRLPQPSDQHFTSAVHQKHKDHFRLTIPRKSKLAVHRNIRDDEGFIIRHFAGAVCYETTQFVEKNNDALHMSLESLICESRDKFIRELFESSTNNNKDTKQKAGKLSFISVGNKFKTQLNLLLDKLRSTGASFIRCIKPNLKMTSHHFEGAQILSQLQCSGMVSVLDLMQGGYPSRASFHELYNMYKKYMPDKLARLDPRLFCKALFKALGLNENDYKFGLTKVFFRPGKFAEFDQIMKSDPDHLAELVKRVNHWLTCSRWKKVQWCSLSVIKLKNKIKYRAEACIKMQKTIRMWLCKRRHKPRIDGLVKVGTLKKRLDKFNEVVSVLKDGKPEMNKQIKNLEISIDTLMAKIKSTMMTQEQIQKEYDALVKSSEELLSALQKKKQQEEEAERLRRIQEEMEKERKRREEDEKRRRKEEEERRMKLEMEAKRKQEEEERKKREDDEKRIQAEVEAQLARQKEEESQQQAVLEQERRDRELALRIAQSEAELISDEAQADLALRRSLDSYPVSKNDGTRPKMTPEQMAKEMSEFLSRGPAVLATKAAAGTKKYDLSKWKYAELRDTINTSCDIELLAACREEFHRRLKVYHAWKSKNKKRNTETEQRAPKSVTDYDFAPFLNNSPQQNPAAQIPARQREIEMNRQQRFFRIPFIRPADQYKDPQSKKKGWWYAHFDGPWIARQMELHPDKPPILLVAGKDDMEMCELNLEETGLTRKRGAEILPRQFEEIWERCGGIQYLQNAIESRQARPTYATAMLQSLLK [MYO6]”, in data set [1], the “solubility in G1/S (log2)” value is -0.238. Also, the results for the melting temperature in data set [2] (cell cycle stage: G1/S) and in data set [2] (cell cycle stage: mitosis) were 52.1 °C and 51.5 °C, respectively. Also, in data set [3], the “solubility change mitosis (log2)” value is -0.164. Also, the thermal stability score in data set [4] (setting [5]) is -0.962; in data set [4] (cell cycle stage: mitosis), -1.32.
Take “MEDTPLVISKQKTEVVCGVPTQVVCTAFSSHILVVVTQFGKMGTLVSLEPSSVASDVSKPVLTTKVLLGQDEPLIHVFAKNLVAFVSQEAGNRAVLLAVAVKDKSMEGLKALREVIRVCQVW [PSMG3]”: the “solubility in G1/S (log2)” value in data set [1] worked out at 0.13. Besides, the melting temperature in data set [2] (cell cycle stage: G1/S) was 57.8 °C; in data set [2] (cell cycle stage: mitosis) it was 56.2 °C. The “solubility change mitosis (log2)” value in data set [3] was -0.0857. Moreover, the thermal stability score was -1.46 in data set [4] (setting [5]) and -2.93 in data set [4] (cell cycle stage: mitosis).
Regarding “MEEEDESRGKTEESGEDRGDGPPDRDPTLSPSAFILRAIQQAVGSSLQGDLPNDKDGSRCHGLRWRRCRSPRSEPRSQESGGTDTATVLDMATDSFLAGLVSVLDPPDTWVPSRLDLRPGESEDMLELVAEVRIGDRDPIPLPVPSLLPRLRAWRTGKTVSPQSNSSRPTCARHLTLGTGDGGPAPPPAPSSASSSPSPSPSSSSPSPPPPPPPPAPPAPPAPRFDIYDPFHPTDEAYSPPPAPEQKYDPFEPTGSNPSSSAGTPSPEEEEEEEEEEEEEEEDEEEEEGLSQSISRISETLAGIYDDNSLSQDFPGDESPRPDAQPTQPTPAPGTPPQVDSTRADGAMRRRVFVVGTEAEACREGKVSVEVVTAGGAALPPPLLPPGDSEIEEGEIVQPEEEPRLALSLFRPGGRAARPTPAASATPTAQPLPQPPAPRAPEGDDFLSLHAESDGEGALQVDLGEPAPAPPAADSRWGGLDLRRKILTQRRERYRQRSPSPAPAPAPAAAAGPPTRKKSRRERKRSGEAKEAASSSSGTQPAPPAPASPWDSKKHRSRDRKPGSHASSSARRRSRSRSRSRSTRRRSRSTDRRRGGSRRSRSREKRRRRRRSASPPPATSSSSSSRRERHRGKHRDGGGSKKKKKRSRSRGEKRSGDGSEKAPAPAPPPSGSTSCGDRDSRRRGAVPPSIQDLTDHDLFAIKRTITVGRLDKSDPRGPSPAPASSPKREVLYDSEGLSGEERGGKSSQKDRRRSGAASSSSSSREKGSRRKALDGGDRDRDRDRDRDRDRSSKKARPPKESAPSSGPPPKPPVSSGSGSSSSSSSCSSRKVKLQSKVAVLIREGVSSTTPAKDAASAGLGSIGVKFSRDRESRSPFLKPDERAPTEMAKAAPGSTKPKKTKVKAKAGAKKTKGTKGKTKPSKTRKKVRSGGGSGGSGGQVSLKKSKADSCSQAAGTKGAEETSWSGEERAAKVPSTPPPKAAPPPPALTPDSQTVDSSCKTPEVSFLPEEATEEAGVRGGAEEEEEEEEEEEEEEEEEEQQPATTTATSTAAAAPSTAPSAGSTAGDSGAEDGPASRVSQLPTLPPPMPWNLPAGVDCTTSGVLALTALLFKMEEANLASRAKAQELIQATNQILSHRKPPSSLGMTPAPVPTSLGLPPGPSSYLLPGSLPLGGCGSTPPTPTGLAATSDKREGSSSSEGRGDTDKYLKKLHTQERAVEEVKLAIKPYYQKKDITKEEYKDILRKAVHKICHSKSGEINPVKVSNLVRAYVQRYRYFRKHGRKPGDPPGPPRPPKEPGPPDKGGPGLPLPPL [SCAF1]”, the “solubility in G1/S (log2)” value in data set [1] is -1.69. Besides, the results for the melting temperature in data set [2] (cell cycle stage: G1/S) and in data set [2] (cell cycle stage: mitosis) were 49.5 °C and 50.2 °C, respectively. For the same sequence, in data set [3], the “solubility change mitosis (log2)” value was found to be 1.41. For the same sequence, the figures for the thermal stability score in data set [4] (setting [5]) and in data set [4] (cell cycle stage: mitosis) were -0.0585 and 1.29, respectively.
For “MEEHSYIQKELDLQNGSLEEDSVVHSVENDSQNMMESLSPKKYSSSLRFKANGDYSGSYLTLSQPVPAKRSPSPLGTSVRSSPSLAKIQGSKQFSYDGTDKNIPMKPPTPLLNTTSSLSGYPLGRADFDHYTGRDSERALRLSEKPPYSKYSSRHKSHDNVYSLGGLEGRKASGSLLAMWNGSSLSDAGPPPISRSGAASMPSSPKQARKMSIQDSLALQPKLTRHKELASENINLRTRKYSSSSLSHMGAYSRSLPRLYRATENQLTPLSLPPRNSLGNSKRTKLGEKDLPHSVIDNDNYLNFSSLSSGALPYKTSASEGNPYVSSTLSVPASPRVARKMLLASTSSCASDDFDQASYVGTNPSHSLLAGESDRVFATRRNFSCGSVEFDEADLESLRQASGTPQPALRERKSSISSISGRDDLMDYHRRQREERLREQEMERLERQRLETILSLCAEYTKPDSRLSTGTTVEDVQKINKELEKLQLSDEESVFEEALMSPDTRYRCHRKDSLPDADLASCGSLSQSSASFFTPRSTRNDELLSDLTRTPPPPSSTFPKASSESSYLSILPKTPEGISEEQRSQELAAMEETRIVILNNLEELKQKIKDINDQMDESFRELDMECALLDGEQKSETTELMKEKEILDHLNRKIAELEKNIVGEKTKEKVKLDAEREKLERLQELYSEQKTQLDNCPESMREQLQQQLKRDADLLDVESKHFEDLEFQQLEHESRLDEEKENLTQQLLREVAEYQRNIVSRKEKISALKKQANHIVQQAQREQDHFVKEKNNLIMMLQREKENLCNLEKKYSSLSGGKGFPVNPNTLKEGYISVNEINEPCGNSTNLSPSTQFPADADAVATEPATAVLASQPQSKEHFRSLEERKKQHKEGLYLSDTLPRKKTTSSISPHFSSATMGRSITPKAHLPLGQSNSCGSVLPPSLAAMAKDSESRRMLRGYNHQQMSEGHRQKSEFYNRTASESNVYLNSFHYPDHSYKDQAFDTLSLDSSDSMETSISACSPDNISSASTSNIARIEEMERLLKQAHAEKTRLLESREREMEAKKRALEEEKRRREILEKRLQEETSQRQKLIEKEVKIRERQRAQARPLTRYLPVRKEDFDLRSHVETAGHNIDTCYHVSITEKTCRGFLIKMGGKIKTWKKRWFVFDRNKRTFSYYADKHETKLKGVIYFQAIEEVYYDHLKNANKSPNPLLTFSVKTHDRIYYMVAPSPEAMRIWMDVIVTGAEGYTHFLL [PHLDB2]”, in data set [1], the “solubility in G1/S (log2)” value is -0.28. Besides, the melting temperature in data set [2] (cell cycle stage: G1/S) turned out to be 48.9 °C; in data set [2] (cell cycle stage: mitosis) it was 49.1 °C. Further, the “solubility change mitosis (log2)” value in data set [3] was found to be 0.164. For the same sequence, the results for the thermal stability score in data set [4] (setting [5]) and in data set [4] (cell cycle stage: mitosis) were -0.165 and 1.44, respectively.
